Ends that are not written are not given here. * marks the point of attachment. Palmitoyl = CCCCCCCCCCCCCCCC(=O)*
T1: GLP-1 receptor present in the plasma membranes isolated from RINm5F cells (UniProt P32301 22-463, limits assumed)
T1 construct: whole, on cells
T1 sequence (looked up): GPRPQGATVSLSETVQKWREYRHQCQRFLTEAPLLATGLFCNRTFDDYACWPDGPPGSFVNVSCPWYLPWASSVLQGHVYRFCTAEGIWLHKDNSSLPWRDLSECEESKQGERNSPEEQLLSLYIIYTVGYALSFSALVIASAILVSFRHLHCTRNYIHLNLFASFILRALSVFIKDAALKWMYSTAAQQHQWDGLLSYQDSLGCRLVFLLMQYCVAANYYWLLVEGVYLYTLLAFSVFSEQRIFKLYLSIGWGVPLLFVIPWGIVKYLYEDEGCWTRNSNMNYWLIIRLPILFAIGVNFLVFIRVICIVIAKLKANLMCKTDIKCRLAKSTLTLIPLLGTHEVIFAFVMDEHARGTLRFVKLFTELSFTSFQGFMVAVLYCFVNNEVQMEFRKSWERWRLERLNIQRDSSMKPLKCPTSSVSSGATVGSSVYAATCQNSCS


What follows are binders tested against T2, glucagon receptor present in the plasma membranes isolated from rat liver (rat, UniProt P30082 27-485) (assay: 125I-glucagon displacement, rat liver plasma membranes).
T2 construct: whole, on cells
Method: (§1) Competitive binding of some polypeptides of the invention to rat liver plasma membranes was measured as follows. Ninety-six-well GF/C filtration plates (Millipore, Bedford, Ma.) were blocked with 0.1% PEI for at least one hour and washed twice with binding buffer consisting of 20 mM Tris, 2 mM EDTA, pH 7.5, 1 mg/ml BSA, and 1 mg/ml bacitracin. […] The plates were dried, scintillant was added to each well, and cpm per well determined using a Wallac Microbeta counter.

T2 sequence (P30082 27-485): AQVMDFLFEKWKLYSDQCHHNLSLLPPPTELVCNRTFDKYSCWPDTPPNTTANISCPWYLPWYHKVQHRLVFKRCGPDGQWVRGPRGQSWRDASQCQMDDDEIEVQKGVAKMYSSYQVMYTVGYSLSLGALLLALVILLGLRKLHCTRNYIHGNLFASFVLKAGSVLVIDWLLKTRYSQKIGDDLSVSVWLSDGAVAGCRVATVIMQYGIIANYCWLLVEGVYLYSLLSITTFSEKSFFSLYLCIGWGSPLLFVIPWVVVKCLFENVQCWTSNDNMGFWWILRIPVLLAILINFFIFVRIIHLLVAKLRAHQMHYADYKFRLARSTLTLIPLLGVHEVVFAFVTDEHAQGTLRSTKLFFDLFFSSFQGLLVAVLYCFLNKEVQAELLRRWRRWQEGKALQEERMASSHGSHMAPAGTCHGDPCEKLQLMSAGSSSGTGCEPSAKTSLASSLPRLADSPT

Row | Binder | IC50 [nM]
1 | HSQGTFTSDYSKYLEGQAAKEFIAWLVKGR-NH2 [G5] | 243
2 | HSQGTFTSDYAKYLDARRAKEFIAWLVKGRG [G51] | 154
3 | HSQGTFTSDYAKYLDARRAKEFIAWLVKGRK(Palmitoyl) [G88] | 350
4 | HSQGTFTSDYAKYLDAAKAKEFIAWLVKGRG [G60] | 682
5 | HSQGTFTSDYARYLDAKKAKEFIAWLVKGRG [G59] | 97.5
6 | HSQGTFTSDYARYLDARRAREFIK(Palmitoyl)WLVRGRG [G90] | 726
7 | HSQGTFTSDYAKYLDAKKAKEFIAWLVKGRG [G58] | 164
8 | HSQGTFTSDYSKYLDSRRAQDFVQWLVKGR-NH2 [G1] | 6.6

Next, values leading:

Row | IC50 [nM] | Binder
9 | 220 | HSQGTFTSDYARYLDARRAREFIKWLVRGRGK(Palmitoyl) [G182]
10 | 347 | HSQGTFTSDYARYLDARRAREFIKWLVRGRC(PEG22kD) [G2185]
11 | 663 | HSQGTFTSDYARYLDARRAK(Palmitoyl)EFIKWLVRGRG (not fully specified; printed as HSQGTFTSDYARYLDARRAK(FA)EFIKWLVRGRG) [G183]
12 | 65.5 | HSQGTFTSDYAKYLDARRAKEFIAWLVKGRC(PEG22kD) [G277]
13 | 547 | HSQGTFTSDYARYLDARRAREFIKWLVRGRC(PEG43kD) [G4185]

What follows are binders tested against T1, GLP-1 receptor present in the plasma … (assay: 125I-GLP-1 displacement, RINm5F plasma membranes).
Method: as §1, with “RINm5F cell” for “rat liver”, “0.3%” for “0.1%”

Row | Binder | IC50 [nM]
14 | HSQGTFTSDYSKYLEGQAAKEFIAWLVKGR-NH2 [G5] | 0.5
15 | HSQGTFTSDYAKYLDARRAKEFIAWLVKGRG [G51] | 8.2
16 | HSQGTFTSDYAKYLDARRAKEFIAWLVKGRK(Palmitoyl) [G88] | 109
17 | HSQGTFTSDYAKYLDAAKAKEFIAWLVKGRG [G60] | 13.8
18 | HSQGTFTSDYARYLDAKKAKEFIAWLVKGRG [G59] | 2.1
19 | HSQGTFTSDYARYLDARRAREFIK(Palmitoyl)WLVRGRG [G90] | 25.4
20 | HSQGTFTSDYAKYLDAKKAKEFIAWLVKGRG [G58] | 6.9
21 | HSQGTFTSDYSKYLDSRRAQDFVQWLVKGR-NH2 [G1] | 6

Other lines, results leading:

Row | IC50 [nM] | Binder
22 | 12.6 | HSQGTFTSDYARYLDARRAREFIKWLVRGRGK(Palmitoyl) [G182]
23 | 56.1 | HSQGTFTSDYARYLDARRAREFIKWLVRGRC(PEG22kD) [G2185]
24 | 159 | HSQGTFTSDYARYLDARRAK(Palmitoyl)EFIKWLVRGRG (not fully specified; printed as HSQGTFTSDYARYLDARRAK(FA)EFIKWLVRGRG) [G183]
25 | 248 | HSQGTFTSDYARYLDARRAREFIKWLVRGRC(PEG43kD) [G4185]

These binders were tested against T2, glucagon receptor present in the plasma … (assay: cell-based or functional assay).

Row | % Inhib glucagon stimulated cAMP increase (10 uM peptide, rat hepatocytes) [%] | Binder
26 | 35.2 | HSQGTFTSDYAKYLDARRAKEFIAWLVKGRG [G51]
27 | 21.8 | HSQGTFTSDYAKYLDAAKAKEFIAWLVKGRG [G60]
28 | 41.1 | HSQGTFTSDYARYLDAKKAKEFIAWLVKGRG [G59]
29 | 32.6 | HSQGTFTSDYAKYLDAKKAKEFIAWLVKGRG [G58]

What follows are binders tested against T1, GLP-1 receptor present in the plasma … (assay: cell-based or functional assay).

Row | Binder | % GLP1 max, cAMP SPA in RINm5F cells [%] | Relative Potency (%), cAMP SPA in RINm5F cells [%]
30 | HSQGTFTSDYSKYLEGQAAKEFIAWLVKGR-NH2 [G5] | 109 | 69.9
31 | HSQGTFTSDYAKYLDARRAKEFIAWLVKGRG [G51] | 91.2 | 58.1
32 | HSQGTFTSDYAKYLDARRAKEFIAWLVKGRK(Palmitoyl) [G88] | 118 | 2.3
33 | HSQGTFTSDYAKYLDAAKAKEFIAWLVKGRG [G60] | 95.7 | 22.3
34 | HSQGTFTSDYARYLDAKKAKEFIAWLVKGRG [G59] | 102 | 22.7
35 | HSQGTFTSDYARYLDARRAREFIK(Palmitoyl)WLVRGRG [G90] | 83.5 | 0.8
36 | HSQGTFTSDYAKYLDAKKAKEFIAWLVKGRG [G58] | 99 | 76.1
37 | HSQGTFTSDYSKYLDSRRAQDFVQWLVKGR-NH2 [G1] | 112 | 6.9

The next lines start with the values.

Row | % GLP1 max, cAMP SPA in RINm5F cells [%] | Relative Potency (%), cAMP SPA in RINm5F cells [%] | Binder
38 | 104 | 1.4 | HSQGTFTSDYARYLDARRAREFIKWLVRGRGK(Palmitoyl) [G182]
39 | 113 | 6.2 | HSQGTFTSDYARYLDARRAREFIKWLVRGRC(PEG22kD) [G2185]
40 | 90.5 | 0.6 | HSQGTFTSDYARYLDARRAK(Palmitoyl)EFIKWLVRGRG (not fully specified; printed as HSQGTFTSDYARYLDARRAK(FA)EFIKWLVRGRG) [G183]
41 | 93.7 | 1.8 | HSQGTFTSDYAKYLDARRAKEFIAWLVKGRC(PEG22kD) [G277]
42 | 98.3 | 0.7 | HSQGTFTSDYARYLDARRAREFIKWLVRGRC(PEG43kD) [G4185]
